# Source: US20240309095A1 (Incyte, published 2024)
# T1: human B7-H4 (purified monomeric recombinant human protein, ACRO biosystems) (human, UniProt Q7Z7D3 29-258, limits assumed, chemically biotinylated (EZ-Link NHS-LC-Biotin) in the yeast display and competition experiments; non-biotinylated in SPR)
# T1 construct: Bought recombinant monomeric protein; also called B7x; B7S1
# T1 sequence: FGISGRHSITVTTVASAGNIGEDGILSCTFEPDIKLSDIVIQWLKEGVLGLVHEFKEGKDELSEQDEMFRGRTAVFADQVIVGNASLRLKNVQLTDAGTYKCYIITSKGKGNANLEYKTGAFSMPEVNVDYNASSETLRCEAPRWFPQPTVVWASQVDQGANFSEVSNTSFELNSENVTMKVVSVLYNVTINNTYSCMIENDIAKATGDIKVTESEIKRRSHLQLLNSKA
# B1: B07 scFv-Fc (scFv, V domains shown)
# VH: EVQLVESGGGVVQPGRSLRLSCAASGFTFGDRAMNWVRQAPGKGLEWVSAISGSGATTYYADSVKGRFTISRDNSKNTLYLQMNSLRAEDTAVYYCARKRWYGMDVWGQGTTVTVSS
# VL: SYELTQPPSVSVAPGKTARITCGGNNIGSKSVHWYQQKPGQAPVLVVYDDSDRPSGIPERFSGSNSGNTATLTISRVEAGDEADYYCQVWDRGMIFGTGTKLTVL
# notes: Tested as scFv-Fc fusion (human IgG1 Fc, vector pDNL9) in crude yeast supernatant; Combo 2 library
# B2: A02 scFv-Fc (scFv, V domains shown)
# VH: EVQLVESGGGVVQPGRSLRLSCAASGFTFTSRAMNWVRQAPGKGLEWVSAISYEGRTQYYADSVKGRFTISRDNSKNTLYLQMNSLRAEDTAVYYCARKRWYGMDVWGQGTTVTVSS
# VL: SYELTQPPSVSVAPGKTARITCGGNNIGSKSVHWYQQKPGQAPVLVVYDDSDRPSGIPERFSGSNSGNTATLTISRVEAGDEADYYCQVWDRGMIFGTGTKLTVL
# notes: Tested as scFv-Fc fusion (human IgG1 Fc, vector pDNL9) in crude yeast supernatant; Combo 1 library
# B3: B12 scFv-Fc (scFv, V domains shown)
# VH: EVQLVESGGGVVQPGRSLRLSCAASGFTFSDRAMNWVRQAPGKGLEWVSAISGTGASTYYADSVKGRFTISRDNSKNTLYLQMNSLRAEDTAVYYCARKRWYGMDVWGQGTTVTVSS
# VL: SYELTQPPSVSVAPGKTARITCGGNNIGSKSVHWYQQKPGQAPVLVVYDDSDRPSGIPERFSGSNSGNTATLTISRVEAGDEADYYCQVWDRGMIFGTGTKLTVL
# notes: as for B1
# B4: B03 scFv-Fc (scFv, V domains shown)
# VH: EVQLVESGGGVVQPGRSLRLSCAASGFTFGDRAMNWVRQAPGKGLEWVSAISGSGSGTYYADSVKGRFTISRDNSKNTLYLQMNSLRAEDTAVYYCARKRWYGMDVWGQGTTVTVSS
# VL: SYELTQPPSVSVAPGKTARITCGGNNIGMKSVHWYQQKPGQAPVLVVYDDSDRPSGIPERFSGSNSGNTATLTISRVEAGDEADYYCQVWDRGMIFGTGTKLTVL
# notes: as for B2
# B5: A10 scFv-Fc (scFv, V domains shown)
# VH: EVQLVESGGGVVQPGRSLRLSCAASGFTFSSRSMNWVRQAPGKGLEWVSAISGTGYTTYYADSVKGRFTISRDNSKNTLYLQMNSLRAEDTAVYYCARKRWYGMDVWGQGTTVTVSS
# VL: SYELTQPPSVSVAPGKTARITCGGNNIGSKSVHWYQQKPGQAPVLVVYDDSDRPSGIPERFSGSNSGNTATLTISRVEAGDEADYYCQVWDRGMIFGTGTKLTVL
# notes: as for B1
# B6: A01 scFv-Fc (scFv, V domains shown)
# VH: EVQLVESGGGVVQPGRSLRLSCAASGFTFSNKAMNWVRQAPGKGLEWVSAISGSGATTYYADSVKGRFTISRDNSKNTLYLQMNSLRAEDTAVYYCARKRWYGMDVWGQGTTVTVSS
# VL: SYELTQPPSVSVAPGKTARITCGGNNIGSKSVHWYQQKPGQAPVLVVYDDSDRPSGIPERFSGSNSGNTATLTISRVEAGDEADYYCQVWDRGMIFGTGTKLTVL
# notes: as for B2
# B7: A11 scFv-Fc (scFv, V domains shown)
# VH: EVQLVESGGGVVQPGRSLRLSCAASGFTFSSRSMNWVRQAPGKGLEWVSAISGSGSTVYYADSVKGRFTISRDNSKNTLYLQMNSLRAEDTAVYYCARKRWYGMDVWGQGTTVTVSS
# VL: SYELTQPPSVSVAPGKTARITCGGNNIGSKSVHWYQQKPGQAPVLVVYDDSDRPSGIPERFSGSNSGNTATLTISRVEAGDEADYYCQVWDRGMIFGTGTKLTVL
# notes: as for B1
# B8: A08 scFv-Fc (scFv, V domains shown)
# VH: EVQLVESGGGVVQPGRSLRLSCAASGFTFGDRAMNWVRQAPGKGLEWVSAISSSGTTSYYADSVKGRFTISRDNSKNTLYLQMNSLRAEDTAVYYCARKRWYGMDVWGQGTTVTVSS
# VL: SYELTQPPSVSVAPGKTARITCGGNNIGSKSVHWYQQKPGQAPVLVVYDDSDRPSGIPERFSGSNSGNTATLTISRVEAGDEADYYCQVWDRGMIFGTGTKLTVL
# notes: as for B1
# B9: B08 scFv-Fc (scFv, V domains shown)
# VH: EVQLVESGGGVVQPGRSLRLSCAASGFTFSDRAMNWVRQAPGKGLEWVSAISASGASRYYADSVKGRFTISRDNSKNTLYLQMNSLRAEDTAVYYCARKRWYGMDVWGQGTTVTVSS
# VL: SYELTQPPSVSVAPGKTARITCGGNNIGSKSVHWYQQKPGQAPVLVVYDDSDRPSGIPERFSGSNSGNTATLTISRVEAGDEADYYCQVWDRGMIFGTGTKLTVL
# notes: as for B1
# B10: B11 scFv-Fc (scFv, V domains shown)
# VH: EVQLVESGGGVVQPGRSLRLSCAASGFTFTSRAMNWVRQAPGKGLEWVSAISGSGATAYYADSVKGRFTISRDNSKNTLYLQMNSLRAEDTAVYYCARKRWYGMDVWGQGTTVTVSS
# VL: SYELTQPPSVSVAPGKTARITCGGNNIGSKSVHWYQQKPGQAPVLVVYDDSDRPSGIPERFSGSNSGNTATLTISRVEAGDEADYYCQVWDRGMIFGTGTKLTVL
# notes: as for B1
# B11: A09 scFv-Fc (scFv, V domains shown)
# VH: EVQLVESGGGVVQPGRSLRLSCAASGFTFSSRSMNWVRQAPGKGLEWVSAISGSGLTSYYADSVKGRFTISRDNSKNTLYLQMNSLRAEDTAVYYCARKRWYGMDVWGQGTTVTVSS
# VL: SYELTQPPSVSVAPGKTARITCGGNNIGSKSVHWYQQKPGQAPVLVVYDDSDRPSGIPERFSGSNSGNTATLTISRVEAGDEADYYCQVWDRGMIFGTGTKLTVL
# notes: as for B1
# B12: A04 scFv-Fc (scFv, V domains shown)
# VH: EVQLVESGGGVVQPGRSLRLSCAASGFTFSSRSMNWVRQAPGKGLEWVSAISGSGDTTYYADSVKGRFTISRDNSKNTLYLQMNSLRAEDTAVYYCARKRWYGMDVWGQGTTVTVSS
# VL: SYELTQPPSVSVAPGKTARITCGGNNIGSKSVHWYQQKPGQAPVLVVYDDSDRPSGIPERFSGSNSGNTATLTISRVEAGDEADYYCQVWDRGMIFGTGTKLTVL
# notes: as for B2
# B13: B09 scFv-Fc (scFv, V domains shown)
# VH: EVQLVESGGGVVQPGRSLRLSCAASGFTYSSRAMNWVRQAPGKGLEWVSAISSSGTTTYYADSVKGRFTISRDNSKNTLYLQMNSLRAEDTAVYYCARKRWYGMDVWGQGTTVTVSS
# VL: SYELTQPPSVSVAPGKTARITCGGNNIGSKSVHWYQQKPGQAPVLVVYDDSDRPSGIPERFSGSNSGNTATLTISRVEAGDEADYYCQVWDRGMIFGTGTKLTVL
# notes: as for B1
# B14: B04 scFv-Fc (scFv, V domains shown)
# VH: EVQLVESGGGVVQPGRSLRLSCAASGFSFSSRAMNWVRQAPGKGLEWVSAVSGSGSGTYYADSVKGRFTISRDNSKNTLYLQMNSLRAEDTAVYYCARKRWYGMDVWGQGTTVTVSS
# VL: SYELTQPPSVSVAPGKTARITCGGNNIGLKSVHWYQQKPGQAPVLVVYDDSDRPSGIPERFSGSNSGNTATLTISRVEAGDEADYYCQVWDRGMIFGTGTKLTVL
# notes: as for B2
# B15: A05 scFv-Fc (scFv, V domains shown)
# VH: EVQLVESGGGVVQPGRSLRLSCAASGFTYSSRAMNWVRQAPGKGLEWVSAISGSGSNAYYADSVKGRFTISRDNSKNTLYLQMNSLRAEDTAVYYCARKRWYGMDVWGQGTTVTVSS
# VL: SYELTQPPSVSVAPGKTARITCGGNNIGSKSVHWYQQKPGQAPVLVVYDDSDRPSGIPERFSGSNSGNTATLTISRVEAGDEADYYCQVWDRGMIFGTGTKLTVL
# notes: as for B2
# B16: B06 scFv-Fc (scFv, V domains shown)
# VH: EVQLVESGGGVVQPGRSLRLSCAASGFTFSNKAMNWVRQAPGKGLEWVSAISGSGATTYYADSVKGRFTISRDNSKNTLYLQMNSLRAEDTAVYYCARKRWYGMDVWGQGTTVTVSS
# VL: SYELTQPPSVSVAPGKTARITCGGNNIGVKAVHWYQQKPGQAPVLVVYDDSDRPSGIPERFSGSNSGNTATLTISRVEAGDEADYYCQVWDRGMIFGTGTKLTVL
# notes: as for B2
# Molecular target: T1, human B7-H4 (purified monomeric …)
# Experiment: SPR (Carterra LSA); scFv-Fc captured on anti-human IgG Fc, antigen injected
# Procedure: Finally, the affinity of the 24 clones was determined using high-throughput surface plasmon resonance (SPR). The supernatants were arrayed by non-covalent capture in a medium-density SPR chip previously coupled with an anti-human polyclonal antibody and (at least 4 replicates per clone). Non-biotinylated antigen was used for all affinity measurements and sensorgrams were fitted using a pseudo-first-order kinetic model (Lundström 1994). […] In fact, it is notable that the off rates for some of the tested antibodies are probably better than 10⁻⁵ (Table 7), as indicated by the bunching of matured antibodies at that value (Table 7)—such slow off rates are challenging to accurately measure using SPR. No affinity difference was observed between clones coming from one combo library versus the other.
# The scFv from the final population (round 3, combo libraries) was bulk cloned into a yeast expression vector containing a human IgG1 Fc region to be expressed in the scFv-Fc format. For this, the scFv region was amplified by PCR, digested with BssHII and NheI restriction enzyme (New England Biolabs), and cloned into the pDNL9 vector, 92 clones were analyzed by Sanger sequencing and 24 of these plus the parental were expressed using S. cerevisiae strain YVH10 (ATCC MYA-4940). scFv-Fc fusions were expressed for 72 h at 20° C. in the presence of galactose. The Carterra LSA surface resonance system was used for the affinity measurements. Briefly, anti-Human IgG Fc (Southern Biotech, #2048-01) was covalently coupled to an HC30M chip following the manufacturer's protocols. Crude yeast supernatants containing the scFv-Fc fusions were arrayed on the chip.
Binder,KD fold-improvement [fold over parental],Kd [nM],koff [s⁻¹],kon [M⁻¹ s⁻¹]
B1,138,0.054,1.8e-05,330000
B2,188,0.039,1.1e-05,280000
B3,89,0.084,2.8e-05,340000
B4,106,0.07,2.1e-05,300000
B5,72,0.103,1.4e-05,140000
B6,33,0.224,3.7e-05,170000
B7,123,0.06,1.1e-05,190000
B8,172,0.043,1.3e-05,310000
B9,64,0.117,1.8e-05,150000
B10,109,0.068,1.2e-05,180000
B11,100,0.074,1.1e-05,160000
B12,108,0.069,2.1e-05,310000
B13,63,0.118,2.5e-05,210000
B14,43,0.172,2.7e-05,160000
B15,63,0.117,2.2e-05,190000
B16,76,0.097,1.7e-05,170000
